Changes are numbered by the printed parent chain. Entries after “also recorded” stand apart in the source; their conditions may differ.
Test system: luciferase target gene expression in HEK 293 cells (aptamer-modulated RNase P cleavage of mRNA)
Assay: Firefly luciferase assay of transfected cells treated with or without aptamer ligand
Type: cell-based
Conditions: for induction fold of luciferase expression, guanosine-treated versus solvent control-treated cells: 500 μM guanosine vs 0.5% DMSO; for reduction in luciferase activity compared to control construct (Con8): absence of guanosine; for luciferase activity as % of control construct: presence of guanosine (500 μM)
Procedure: Firefly luciferase assay of cultured cells: 3.5×10^4 HEK 293 cells were plated in 96-well flat bottom plate the day before transfection. Plasmid DNA (500 ng) was added to a tube or a 96-well U-bottom plate. Separately, TransIT-293 reagent (Minis; 1.4 μL) was added to 50 μL opti-mem I media (Life Technologies) and allowed to sit for 5 minutes at room temperature (“RT”). Then, 50 μL of this diluted transfection reagent was added to the DNA, mixed, and incubated at RT for 20 min. Finally, 7 μL of this solution was added to a well of cells in a 96-well plate. 4 hours after transfection, medium containing transfection solution was replaced with fresh medium. 24 hours after media change, plates were removed from the incubator, and equilibrated to RT for several minutes on a lab bench, then aspirated. Glo-lysis buffer (Promega, 100 μL, RT) was added, and the plates allowed to remain at RT for at least 5 minutes. Then, the well contents were mixed by 50 μL trituration, and 20 μL of each sample was mixed with 20 μL of bright-glo reagent (Promega) that had been diluted to 10% in glo-lysis buffer. 96 wells were spaced on an opaque white 384-well plate. Following a 5-min incubation at RT, luminescence was measured using a Tecan machine with 500 mSec read time. The luciferase activity was expressed as mean arbitrary light unit (ALU)±S.D.
Plasmid constructs: oligonucleotide fragments containing mascRNA and guanine aptamer sequences (Mandal, M, et al., Cell 113, 577-586 (2003), incorporated herein by reference) were synthesized (IDT) and cloned into a luciferase (Luci) expression construct (Con8) in the 3′ UTR region using compatible restriction sites BamHI and XhoI. All the constructs were verified by DNA sequencing (Genewiz).
Firefly luciferase assay of cultured cells: cells were transfected as described in Example 1. Four hours after transfection, medium containing transfection solution was replaced by medium with either 0.5% DMSO as solvent control or 500 μM guanosine (Sigma) as aptamer ligand. Twenty-two to twenty-four hours after treatment, a luciferase assay was performed as described in Example 1.
Plasmid construction: a DNA fragment containing sequences for the guanine aptamer xpt-G and human arginine pre-tRNA (Nashimoto M. N. et al. Long 5′ leaders inhibit removal of a 3′ trailer from a precursor tRNA by mammalian tRNA 3′ processing endoribonuclease. Nucleic Acids Research, 1999; 27(13): 2770-2776) were synthesized (IDT). The synthesized DNA fragments were digested with BamHI and XhoI restriction enzymes and cloned into the Con8 construct digested with the same restriction enzymes. Construct sequences were verified by DNA sequencing (Genewiz).
Plasmid construction: a DNA fragment containing sequences for the adenine aptamer ydhl-A (M. Mandal and R. R. Breaker, Adenine riboswitches and gene activation by disruption of a transcription terminator. Nature Structural & Molecular Biology. 2004; 11: 29-35, incorporated herein by reference) or theophylline aptamer (G. R. Zimmerman, et al. Interlocking structural motifs mediate molecular discrimination by a theophylline-binding RNA. Nature Structural Biology. 1997; 4: 644-649, incorporated herein by reference), and mascRNA sequence were synthesized (IDT). The synthesized DNA fragments were digested with BamHI and XhoI restriction enzymes and cloned into Con8 digested with the same restriction enzymes. Construct sequences were verified by DNA sequencing (Genewiz).
Four hours after transfection, the media was aspirated, and new media with NaOH (1 mM) as solvent or 1 mM adenine (Calbiochem), or 3 mM theophylline (Sigma) was added. The induction fold was expressed as the quotient of luciferase activity obtained in the presence of aptamer ligand divided by the value obtained in the absence of the aptamer ligand. […]

B1: GM2: SEQ ID NO: 3; guanine aptamer upstream of mascRNA, 6-nucleotide leader in effector region stem (nucleic acid)
chain: CCTCATAAAGGCCAAGAAGGGCGGAAAGATCGCCGTGTAAGGATCCAAGACGAGCTGTACAAGTAAAGCGGCCCGATCATATAATCGCGTGGATATGGCACGCAAGTTTCTACCGGGCACCGTAAATGTCCGACTATGGTCGACGCTGGTGGCTGGCACTCCTGGTTTCCAGGACGGGGTTCAAGTCCCTGCGGTGTCTTTGCTTGGATCGGCCGCGACTCTAGAGTCGACCTGCAGGCATGCAAGCTTCAGCTGCTCGAGGGCCCAGATCTAATTCACCCCACCAGTGCAGGCTGCCTATCAG
**Q.** What does the source list for B1?
**A.** induction fold of luciferase expression, guanosine-treated versus solvent control-treated cells: 1.9 fold; reduction in luciferase activity compared to control construct (Con8): 40%

B2: GM4_2C: SEQ ID NO: 6; two copies of GM4 inserted in tandem in the 3' UTR (nucleic acid)
chain: CCTCATAAAGGCCAAGAAGGGCGGAAAGATCGCCGTGTAAGGATCCAAGACGAGCTGTACAAGTAAAGAAGACGTAATGTATAATCGCGTGGATATGGCACGCAAGTTTCTACCGGGCACCGTAAATGTCCGACTACATTACGACGCTGGTGGCTGGCACTCCTGGTTTCCAGGACGGGGTTCAAGTCCCTGCGGTGTCTTTGCTTGGATCGGCCGCGACTCTAGAGTCGACCTGCAGGCATGCAAGCTTCAGAAGTAAAGAAGACGTAATGTATAATCGCGTGGATATGGCACGCAAGTTTCTACCGGGCACCGTAAATGTCCGACTACATTACGACGCTGGTGGCTGGCACTCCTGGTTTCCAGGACGGGGTTCAAGTCCCTGCGGTGTCTTTGCTTGGATCGGCCGCGACTCTAGAGTCGACCTGCAGGCATGCAAGCTTCAGCTGCTCGAGGGCCCAGATCTAATTCACCCCACCAGTGCAGGCTGCCTATCAG
**Q.** B2 was tested. Which “basal level luciferase expression as % of control construct Con8” value (absence of guanine) did it give?
**A.** The value was 18%.

**Q.** And the “induction fold of luciferase, with guanine versus without guanine” value (guanine treatment)?
**A.** The value was 3.95 fold.

**Q.** What about the “induced luciferase expression as % of Con8” value (presence of guanine treatment) of the same molecule?
**A.** The value was 51%.

B3: GM1: SEQ ID NO: 2; guanine aptamer upstream of mascRNA, 7-nucleotide leader in effector region stem (nucleic acid)
chain: CCTCATAAAGGCCAAGAAGGGCGGAAAGATCGCCGTGTAAGGATCCAAGACGAGCTGTACAAGTAAAGCGGCCGTAATGTATAATCGCGTGGATATGGCACGCAAGTTTCTACCGGGCACCGTAAATGTCCGACTACATTACGACGCTGGTGGCTGGCACTCCTGGTTTCCAGGACGGGGTTCAAGTCCCTGCGGTGTCTTTGCTTGGATCGGCCGCGACTCTAGAGTCGACCTGCAGGCATGCAAGCTTCAGCTGCTCGAGGGCCCAGATCTAATTCACCCCACCAGTGCAGGCTGCCTATCAG
**Q.** Which results are given for B3?
**A.** induction fold of luciferase expression, guanosine-treated versus solvent control-treated cells: 2.9 fold; reduction in luciferase activity compared to control construct (Con8): 52%; luciferase activity as % of control construct: ~100%

B4: GM4: SEQ ID NO: 5; GM1 with CGGC upstream of the effector region mutated to AAGA (nucleic acid)
chain: B3 chain with C69A, G70A, C72A
**Q.** For B4, which “basal level luciferase activity” value (absence of guanine) is on record?
**A.** The value was “lower level of luciferase activity than GM1”.

B5: GM5: SEQ ID NO: 7; zero nucleotides between effector region stem and mascRNA acceptor stem (nucleic acid)
chain: CCTCATAAAGGCCAAGAAGGGCGGAAAGATCGCCGTGTAAGGATCCAAGACGAGCTGTACAAGTAAAGAAGAGCTAATGTATAATCGCGTGGATATGGCACGCAAGTTTCTACCGGGCACCGTAAATGTCCGACTACATTAGCGACGCTGGTGGCTGGCACTCCTGGTTTCCAGGACGGGGTTCAAGTCCCTGCGGTGTCTTTGCTTGGATCGGCCGCGACTCTAGAGTCGACCTGCAGGCATGCAAGCTTCAGCTGCTCGAGGGCCCAGATCTAATTCACCCCACCAGTGCAGGCTGCCTATCAG
**Q.** With B5 as the molecule, how does the “basal level luciferase activity” value (absence of guanine) read?
**A.** The value was “lower level of luciferase activity”.

B6: GM3: SEQ ID NO: 4; 5-nt sequence between effector region stem and acceptor stem of mascRNA (nucleic acid)
chain: CCTCATAAAGGCCAAGAAGGGCGGAAAGATCGCCGTGTAAGGATCCAAGACGAGCTGTACAAGTAAAGCGGCCGGACAAAATAATCGCGTGGATATGGCACGCAAGTTTCTACCGGGCACCGTAAATGTCCGACTTTTGTCCAACGAGACGCTGGTGGCTGGCACTCCTGGTTTCCAGGACGGGGTTCAAGTCCCTGCGGTGTCTTTGCTTGGATCGGCCGCGACTCTAGAGTCGACCTGCAGGCATGCAAGCTTCAGCTGCTCGAGGGCCCAGATCTAATTCACCCCACCAGTGCAGGCTGCCTATCAG
**Q.** How did the “luciferase expression upon guanosine treatment” value (guanosine treatment) turn out when B6 was run?
**A.** The value was “no increase in luciferase expression; also recorded: does not regulate luciferase gene expression”.

B7: GM6: SEQ ID NO: 8; 1 nucleotide between effector region stem and mascRNA acceptor stem (nucleic acid)
chain: CCTCATAAAGGCCAAGAAGGGCGGAAAGATCGCCGTGTAAGGATCCAAGACGAGCTGTACAAGTAAAGAAGAGCTAATGTATAATCGCGTGGATATGGCACGCAAGTTTCTACCGGGCACCGTAAATGTCCGACTACATTAGCAGACGCTGGTGGCTGGCACTCCTGGTTTCCAGGACGGGGTTCAAGTCCCTGCGGTGTCTTTGCTTGGATCGGCCGCGACTCTAGAGTCGACCTGCAGGCATGCAAGCTTCAGCTGCTCGAGGGCCCAGATCTAATTCACCCCACCAGTGCAGGCTGCCTATCAG
**Q.** Which “luciferase expression in response to guanine treatment” value (guanine treatment) does the source give for B7 here?
**A.** The value was “upregulate luciferase expression”.

B8: GM7: SEQ ID NO: 9; 2 nucleotides between effector region stem and mascRNA acceptor stem (nucleic acid)
chain: CCTCATAAAGGCCAAGAAGGGCGGAAAGATCGCCGTGTAAGGATCCAAGACGAGCTGTACAAGTAAAGAAGAGCTAATGTATAATCGCGTGGATATGGCACGCAAGTTTCTACCGGGCACCGTAAATGTCCGACTACATTAGCGAGACGCTGGTGGCTGGCACTCCTGGTTTCCAGGACGGGGTTCAAGTCCCTGCGGTGTCTTTGCTTGGATCGGCCGCGACTCTAGAGTCGACCTGCAGGCATGCAAGCTTCAGCTGCTCGAGGGCCCAGATCTAATTCACCCCACCAGTGCAGGCTGCCTATCAG
**Q.** For B8, which “luciferase expression in response to guanine treatment” value (guanine treatment) is on record?
**A.** Its value is “upregulate luciferase expression”.

B9: MG1: SEQ ID NO: 1; guanine aptamer immediately downstream of mascRNA in luciferase 3' UTR (nucleic acid)
chain: CCTCATAAAGGCCAAGAAGGGCGGAAAGATCGCCGTGTAAGGATCCAAGACGAGCTGTACAAGTAAAGCGGCCAATTCGGACAAAAACGAGACGCTGGTGGCTGGCACTCCTGGTTTCCAGGACGGGGTTCAAGTCCCTGCGGTGTCTATAATCGCGTGGATATGGCACGCAAGTTTCTACCGGGCACCGTAAATGTCCGACTAGACACCATCTAGAGTCGACCTGCAGGCATGCAAGCTTCAGCTGCTCGAGGGCCCAGATCTAATTCACCCCACCAGTGCAGGCTGCCTATCAG
**Q.** B9 was tested. Which “induction fold of luciferase expression, guanosine-treated versus solvent control-treated cells” value did it give?
**A.** The value was 2.1 fold.

**Q.** What about the “reduction in luciferase activity compared to control construct (Con8)” value of the same molecule?
**A.** Its value is 32%.

**Q.** What about the “luciferase activity as % of Luci control construct” value (absence of guanosine (DMSO solvent control)) of the same molecule?
**A.** Its value is “about 68%”.

**Q.** And the “luciferase activity as % of control construct” value?
**A.** The value was 100%.

Reference: US11739333B2, “Regulation of gene expression by aptamer-modulated RNase p cleavage” (MeiraGTx UK II Limited, priority 2017, dated 2023)
